We go through one molecule from patent US20130156770A1 (published 2013).

Among the targets are BC 247-C3 x CD3; BC 244-C6 x CD3; BCMA-107 x CD3.
Common to all, as to experiment: SPR (Biacore)

B1: Human BCMA (receptor)
chain: MLQMAGQCSQNEYFDSLLHACIPCQLRCSSNTPPLTCQRYCNASVTNSVKGTNAILWTCLGLSLIISLAVFVLMFLLRKINSEPLKDEFKNTGSGLLGMANIDLEKSRTGDEIILPRGLEYTVEECTCEDCIKSKPKVDSDHCFPLPAMEEGATILVTTKTNDYCKSLPAALSATEIEKSISAR
Take B1: the Kd was determined as 0.4 nM in the experiment with BC 247-C3 x CD3, 0.3 nM with BC 244-C6 x CD3 and 34.2 nM with BCMA-107 x CD3.
